Measurements published in PMC8528823 (2021).

Biological target: SARS-CoV-2 WT RBD (SARS-CoV-2, UniProt P0DTC2 319-541)
Experiment: SPR

B1: Mouse Fc (mFc) tagged mink ACE2 (Fc fusion)
chain: QSTTEDLAKTFLEKFNYEAEELSYQNSLASWNYNTNITDENIQKMNIAGAKWSAFYEEESQHAKTYPLEEIQDPIIKRQLRALQQSGSSVLSADKRERLNTILNAMSTIYSTGKACNPNNPQECLLLEPGLDDIMENSKDYNERLWAWEGWRSEVGKQLRPLYEEYVALKNEMARANNYEDYGDYWRGDYEEEWADGYNYSRNQLIEDVEHTFTQIKPLYEHLHAYVRAKLMDAYPSRISPTGCLPAHLLGDMWGRFWTNLYPLMVPFGQKPNIDVTDAMVNQSWDARRIFKEAEKFFVSVGLPNMTEGFWQNSMLTEPGDNRKVVCHPTAWDLGKHDFRIKMCTKVTMDDFLTAHHEMGHIQYDMAYAAQPFLLRNGANEGFHEAVGEIMSLSAATPNHLKNIGLLPPDFSEDSETDINFLLKQALTIVGTLPFTYMLEKWRWMVFKGEIPKEQWMQKWWEMKRDIVGVVEPLPHDETYCDPAALFHVANDYSFIRYYTRTIYQFQFQEALCQIAKHEGPLYKCDISNSREAGQKLHEMLSLGRSKPWTFALERVVGAKTMDVRPLLNYFEPLFTWLKEQNRNSFVGWNTDWSPYADQSIKVRISLKSALGEKAYEWNDNEMYFFQSSIAYAMREYFSKVKKQTIPFVDKDVRVSDLKPRISFNFIVTSPENMSDIIPRADVEEAIRKSRGRINDAFRLDDNSLEFLGIQPTLEPPYQPPVT
Binder B1 has a koff of 1.65 s⁻¹.
